Usually stoichiometry N stands for the number of molecules, sites or subunits per partner or assembly.

Experimental findings from article PMC7311918, “Structures of Human Antibodies Bound to SARS-CoV-2 Spike Reveal Common Epitopes and Recurrent Features of Antibodies” (Cell, 2020) are described below.

This assay has as its target T1, SARS-CoV-2 S 2P trimer (S ectodomain, residues 16-1206) (SARS-CoV-2, early isolate GenBank …, UniProt P0DTC2, stabilised).
T1 construct: also called SARS-CoV-2 S protein; SARS-CoV-2 S trimer
Nature of the assay: cryo-EM structure. The following applies: both partners purified.

Where “and” joins values, the source holds several entries; their conditions need not be identical. Identical values can stand only once.

B1: C105 Fab (Fab, V domains shown)
VH: QVQLVESGGGLIQPGGSLRLSCAASGFTVSSNYMSWVRQAPGKGLEWVSVIYSGGSTYYADSVKGRFTISRDNSKNTLYLQMNSLRAEDTAVYYCARGEGWELPYDYWGQGTLVTVSS
VL: QSALTQPPSASGSPGQSVTISCTGTSSDVGGYKYVSWYQQHPGKAPKLMIYEVSKRPSGVPDRFSGSKSGNTASLTVSGLQAEDEADYYCSSYEGSNNFVVFGGGTKLTVL
notes: also called mAb C105
Take B1: the “stoichiometry N” value was 2 Fabs per S trimer and 3 Fabs per S trimer.
